Results: US7521432B2, “Compositions and methods for identifying agents which regulate chromosomal stability, gene activation and aging” (priority 2000, dated 2009)
Numbering of substitutions follows the chain as printed. Names may count otherwise. “And” between values parts separate entries of the source, which are not always exact repeats. Identical values can stand only once.

B1: hSIRT2: human SIR2 enzyme (protein, UniProt Q8IXJ6 2-389, looked up)
NAD-dependent protein …: AEPDPSHPLETQAGKVQEAQDSDSDSEGGAAGGEADMDFLRNLFSQTLSLGSQKERLLDELTLEGVARYMQSERCRRVICLVGAGISTSAGIPDFRSPSTGLYDNLEKYHLPYPEAIFEISYFKKHPEPFFALAKELYPGQFKPTICHYFMRLLKDKGLLLRCYTQNIDTLERIAGLEQEDLVEAHGTFYTSHCVSASCRHEYPLSWMKEKIFSEVTPKCEDCQSLVKPDIVFFGESLPARFFSCMQSDFLKVDLLLVMGTSLQVQPFASLISKAPLSTPRLLINKEKAGQSDPFLGMIMGLGGGMDFDSKKAYRDVAWLGECDQGCLALAELLGWKKELEDLVRREHASIDAQSGAGVPNPSTSASPKKSPPPAKDEARTTEREKPQ
B2: HST2: yeast SIR2 homolog, recombinant histidine tagged full length NAD-dependent deacetylase (protein, UniProt P53686 2-357, looked up)
NAD-dependent protein …: SVSTASTEMSVRKIAAHMKSNPNAKVIFMVGAGISTSCGIPDFRSPGTGLYHNLARLKLPYPEAVFDVDFFQSDPLPFYTLAKELYPGNFRPSKFHYLLKLFQDKDVLKRVYTQNIDTLERQAGVKDDLIIEAHGSFAHCHCIGCGKVYPPQVFKSKLAEHPIKDFVKCDVCGELVKPAIVFFGEDLPDSFSETWLNDSEWLREKITTSGKHPQQPLVIVVGTSLAVYPFASLPEEIPRKVKRVLCNLETVGDFKANKRPTDLIVHQYSDEFAEQLVEELGWQEDFEKILTAQGGMGDNSKEQLLEIVHDLENLSLDQSEHESADKKDKKLQRLNGHDSDEDGASNSSSSQKAAKE
B3: HST2 R45A: catalytically impaired mutant of HST2 (R45A) (protein, UniProt P53686 2-357, looked up, variant R45A)
NAD-dependent protein …: B2 NAD-dependent protein … with R44A

Key:
[1] = system: Asterina miniata immature oocytes; test: Microinjection into immature starfish oocytes, oocyte maturation (GVBD, polar body extrusion); type: cell-based; details: for maturation and fertilization of injected egg: 10 μM 1-MA
Method: (§1) Asterina miniata gametes were collected and microinjections were performed as described previously (Carroll et al., 1999). Briefly, quantitative microinjection of Asterina miniata oocytes was performed at 16° C., using mercury-filled micropipets (Hiramoto, 1962; Kiehart, 1982; and see the information available at http://egg/uchc.edu/injection), allowing injection of precisely calibrated picoliter volumes into the oocytes and blastomeres. Injection volumes were 3% of the total cellular volume (for oocytes, 93 pL and for blastomeres, 47 pL). Buffer alone, purified O-acetylated ADP ribose or recombinant protein was injected into immature oocytes or one blastomere of a two cell stage embryo to a final concentration in the cytoplasm as indicated in the figure legends and Tables. 1-methyl adenine was from Sigma and was used at 10 μM.
Micro-injection assays were performed in starfish and sea urchin ooctyes. Historically echinoderm development has been a biochemically tractable and well-defined system to assess biological function of pruteins, bio-active compounds and for detailed analyses of the cell cycle. This system is attractive for its amenability to quantitative microinjection assays, cell cycle analyses, biochemical fractionation and microscopic imaging of eggs and early embryos. Initially, we hypothesized that if O-acetyl-ADP ribose produced by SIR2 was involved in SIR2's gene silencing ability, then micro-injection of O-acetyl-ADP ribose into a maturing oocyte should give rise to a phenotypic effect on the developing animal, perhaps through perturbations in normal gene expression patterns. Immature oocytes were micro-injected with HPLC-purified O-acetyl-ADP ribose or with a buffer control. The oocytes were allowed to mature by the addition of 1-methyladenine and assessed for developmental alterations.
Asterina miniata immature oocytes were microinjected with the amounts of O-acetyl ADP ribose in PBS. The maturation hormone 1-methyladenine was added (10 μM) 25-30 minutes post-injection. Oocytes were monitored for GVBD and polar body extrusion. […] The number of oocytes per treatment is given. Combined results of 3 separate experiments (3 batches of O-acetyl ADP ribose).
Asterina miniata immature oocytes were microinjected with the given enzymes in PBS. The maturation hormone 1-methyladenine was added (10 μM) 25-30 minutes post-injection. Oocytes were monitored for GVBD and polar body extrusion. […] The number of oocytes per treatment (n) is given. Data are from four separate batches of oocytes. All oocytes for a given treatment responded in the same way unless indicated otherwise (e.g. see 200 nM HST2 injection).

[2] = system: Asterina miniata blastomere of two cell stage embryo; test: Microinjection into one blastomere of two-cell stage embryo, early embryonic cell division; type: cell-based
Method: as §1
To examine whether these SIR2 enzymes caused any phenotypic effects on early embryonic cell division, HST2 or the R45A mutant were micro-injected into one cell of the two-cell stage embryos. Asterina miniata oocytes were matured by addition of the hormone 1-methyladenine and then fertilized. One cell zygotes were then placed in injection chambers. After the first cell division, one daughter blastomere was microinjected with the indicated enzyme (see table and figure below). Embryos were monitored for further cell divisions over time. The non-injected daughter blastomere served as the internal control in each experiment. […] Again, there was a clear dosage effect that paralleled the effect observed on oocyte maturation.
Asterina miniata oocytes were matured by addition of the hormone 1-methyladenine and then fertilized. One cell zygotes were then placed in injection chambers. After the first cell division, one daughter blastomere was microinjected with the indicated enzyme. Embryos were monitored for further cell divisions over time. The non-injected daughter blastomere served as the internal control in each experiment. The number of injected embryos per treatment is given (n). Data are from two separate batches of oocytes.

[3] = target: acetyl-peptide (Saccharomyces cerevisiae, UniProt P53686, R45A); test: Catalytic efficiency of R45A mutant compared to wild type HST2; type: biochemical; details: unpublished data
Chain of acetyl-peptide (P53686 whole entry R45A): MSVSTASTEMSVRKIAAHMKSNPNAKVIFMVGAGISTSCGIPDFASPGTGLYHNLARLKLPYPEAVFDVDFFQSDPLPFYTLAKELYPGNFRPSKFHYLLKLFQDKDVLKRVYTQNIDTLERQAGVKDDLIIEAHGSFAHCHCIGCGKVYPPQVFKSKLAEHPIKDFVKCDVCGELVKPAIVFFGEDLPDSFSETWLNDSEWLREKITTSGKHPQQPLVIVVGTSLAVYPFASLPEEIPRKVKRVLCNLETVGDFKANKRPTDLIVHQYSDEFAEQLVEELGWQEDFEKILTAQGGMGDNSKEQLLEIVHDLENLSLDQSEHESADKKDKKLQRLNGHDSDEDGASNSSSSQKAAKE
From the text: To complement these studies, we micro-injected active yeast HST2 and human SIR2 enzymes instead of O-acetyl-ADP ribose. We hypothesized that if acetylated protein substrates were available in the oocyte, then micro-injected enzyme would provide a more constant source of O-acetyl-ADP ribose. As a control, a catalytically impaired mutant of HST2 (R45A) was employed to ensure that any effects were due to the catalytic activity of the enzyme. The R45A mutant is >50-fold lower in catalytic efficiency (kcat and kcat/Km for acetyl-peptide) compared to wild type enzyme (unpublished data).

[4] = final conc 200 nM in blastomere

Row | Molecule | effect on oocyte maturation ([1]; above 72 nM) | Effects/Notes (oocyte maturation) ([1]; final conc 25 nM) | Effects/Notes (oocyte maturation) ([1]; final conc 60 nM) | Effects/Notes (oocyte maturation) ([1]; final conc 200 nM) | Effects: 3rd cell division ([2]; final conc 25 nM in blastomere) | Effects: Next cell division ([2]; final conc 25 nM in blastomere) | Effects: other ([2]; final conc 25 nM in blastomere) | Effects: 3rd cell division ([2]; final conc 72 nM in blastomere) | Effects: Next cell division ([2]; final conc 72 nM in blastomere) | Effects: 3rd cell division [2, 4] | Effects: Next cell division [2, 4] | Effects/Notes (oocyte maturation) ([1]; final conc 72 nM) | other results
1 | B1 | complete block in maturation | no effect was observed | 2 hr delay in GVBD and polar body extrusion and polar | complete block | – | – | – | – | – | – | – | – | –
2 | B2 | complete block in maturation | no effect was observed | 2 hr delay in GVBD and polar body extrusion | complete block in 9/10; 3 hr delay 1/10 | Normal | 4/5 normal and 1/5 as slight | Normal | Complete | 4/10 slight and 6/10 no | Complete | 2/7 slight and 5/7 no | complete block | development of injected cells ([2]; 25 nM, most cells): developed normally; division of injected blastomere ([2]; 200 nM, injected after complete cytokinesis, FIG. 10C): divided once, then both daughters stopped; effect on cell division of injected blastomere ([2]; at and above 72 nM): complete block in cell division either at the next or subsequent division; maturation and fertilization of injected egg ([1]; 200 nM final, fertilized 4 hours later, FIG. 10A): failed to mature; injected eggs in chamber behaving the same way (failed to mature) ([1]; 200 nM final, FIG. 10A): 10 of 10
3 | B3 | – | no observed effect | no observed effect | no observed effect | Normal | Normal | Normal | Normal | Normal | Normal | normal | no observed effect | phenotype of injected blastomere ([2]; any concentration): no phenotype; Effects: other ([2]; final conc 72 nM in blastomere): Normal; Effects: other [2, 4]: Normal; maturation and fertilization of injected egg ([1]; fertilized four hours later, FIG. 10B): matured and were fertilized normally; injected eggs in chamber behaving the same way (matured, fertilized normally) ([1]; FIG. 10B): 7 of 7; effect on oocyte maturation ([1]; any concentration from 25-200 nM): no observed effects; lower in catalytic efficiency (kcat and kcat/Km for acetyl-peptide) compared to wild type enzyme [3]: > 50 fold
